Reference: doi:10.1101/2025.06.05.658000
Where two headings read alike, the source gives them in different places.

Experiments:
Assay in all cases: ELISA
[1] = target: HLA-DR (DRA1*01:01 / DRB1*01:01), soluble knob-into-hole Fc heterodimer (human)
[2] = target: HLA-DR (DRA1*01:01 / DRB1*13:01), soluble knob-into-hole Fc heterodimer (human)
[3] = target: HLA-DR (DRA1*01:01 / DRB1*13:02), soluble knob-into-hole Fc heterodimer (human)
[4] = target: HLA-DR (DRA1*01:01 / DRB1*13:01), soluble knob-into-hole Fc heterodimer (human); remark: listed apart in the source
[5] = target: HLA-DR (DRA1*01:01 / DRB1*13:02), soluble knob-into-hole Fc heterodimer (human); remark: listed apart in the source
[6] = target: The majority of HLA-DR

Substance	IC50 [1] [nM]	affinity [2] [nM]	affinity [3] [µM]	affinity [4] [nM]	affinity [5] [nM]	affinity [6] [nM]
SARS-CoV-2 RBD peptide RBD487-501 (from UniProt P0DTC2 487-501)	293					
SARS-CoV-2 RBD peptide RBD491-505 (from UniProt P0DTC2 491-505)	152					
biotin-labeled human Class II-associated Invariant Chain Peptide (Bio-CLIP)		300	4	< 300	< 300	0 to 25
